Earlier results as cited in publication PMC3394898.

Molecular target: NTSR1 (Mus musculus) (UniProt O88319)
Sequence of UniProt O88319 (O88319 whole entry): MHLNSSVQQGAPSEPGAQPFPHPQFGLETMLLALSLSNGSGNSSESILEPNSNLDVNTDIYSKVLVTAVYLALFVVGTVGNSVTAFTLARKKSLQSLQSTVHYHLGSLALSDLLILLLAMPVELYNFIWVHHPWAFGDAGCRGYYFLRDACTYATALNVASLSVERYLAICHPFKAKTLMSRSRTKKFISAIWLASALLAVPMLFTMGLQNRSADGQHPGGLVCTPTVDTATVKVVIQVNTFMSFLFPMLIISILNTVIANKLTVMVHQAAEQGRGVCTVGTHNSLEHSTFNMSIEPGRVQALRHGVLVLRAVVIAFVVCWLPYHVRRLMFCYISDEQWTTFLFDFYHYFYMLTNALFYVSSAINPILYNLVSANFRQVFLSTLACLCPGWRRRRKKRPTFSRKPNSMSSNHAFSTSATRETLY

Substance: neurotensin (NTS) (from UniProt P30990)
- Kd: 5 nM
